From article PMC9352680, “A comprehensive thermodynamic model for RNA binding by the Saccharomyces cerevisiae Pumilio protein PUF4” come the findings set out here.

Positions count from the first letter of the chain named. Names and notes keep the numbering of the source.

T1: PUF4 RNA-binding domain (Saccharomyces cerevisiae, UniProt P25339 537-888)
T1 sequence: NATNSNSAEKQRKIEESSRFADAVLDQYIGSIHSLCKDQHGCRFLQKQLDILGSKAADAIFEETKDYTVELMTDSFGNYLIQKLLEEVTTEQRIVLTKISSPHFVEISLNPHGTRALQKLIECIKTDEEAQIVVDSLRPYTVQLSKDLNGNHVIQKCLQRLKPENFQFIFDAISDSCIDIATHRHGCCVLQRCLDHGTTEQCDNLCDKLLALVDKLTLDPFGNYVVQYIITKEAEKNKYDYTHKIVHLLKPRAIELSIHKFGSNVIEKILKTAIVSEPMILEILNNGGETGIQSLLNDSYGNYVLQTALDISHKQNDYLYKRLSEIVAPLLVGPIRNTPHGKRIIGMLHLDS

B1: Id_iii_S2_P3E.5_K3.1_C3.3_[T-3A]_H3.1_A3.1_F3.1_T3.2 (ssRNA)
RNA: UUUGAUUAAUAUGAUAUCGUUCUUUCUACUUGUAUAUAUAUUCUUUCUCGAUAUCAUAUUAAUCUUU
B2: Id_iii_S2_P3E.7_K3.3_C3.3_[T-3A]_H3.3_A3.1_F3.1_T3.2 (ssRNA)
RNA: B1 RNA with U31A, G32C, U33A, A34C
B3: Id_iii_S2_P3E.6_K3.2_C3.3_[T-3A]_H3.2_A3.1_F3.1_T3.2 (ssRNA)
RNA: B1 RNA with G32A
B4: Id_iii_S2_P3E.6_K3.2_C3.3_H3.2_A3.1_F3.1_T3.2_[T9C] (ssRNA)
RNA: B1 RNA with A28U, G32A, U39C
B5: Id_iii_S2_P3E.6_K3.2_C3.3_H3.2_A3.1_F3.1_T3.2_[A10T] (ssRNA)
RNA: B1 RNA with A28U, G32A, A40U
B6: Id_iii_S2_P3E.5_K3.1_C3.3_H3.1_A3.1_F3.1_T3.2_[A10G] (ssRNA)
RNA: B1 RNA with A28U, A40G
B7: Id_iii_S2_P3E.6_K3.2_C3.3_[C-2T]_H3.2_A3.1_F3.1_T3.2 (ssRNA)
RNA: B1 RNA with A28U, C29U, G32A
B8: Id_iii_S2_P3E.7_K3.3_C3.3_[T-1G]_H3.3_A3.1_F3.1_T3.2 (ssRNA)
RNA: B1 RNA with A28U, U30G, U31A, G32C, U33A, A34C
B9: Id_iii_S2_P3E.5_K3.1_C3.3_[C-2T]_H3.1_A3.1_F3.1_T3.2 (ssRNA)
RNA: B1 RNA with A28U, C29U
B10: Id_iii_S2_P3E.7_K3.3_C3.3_[T-1C]_H3.3_A3.1_F3.1_T3.2 (ssRNA)
RNA: B1 RNA with A28U, U30C, U31A, G32C, U33A, A34C
B11: Id_iii_S2_P3E.7_K3.3_C3.3_[T-3G]_H3.3_A3.1_F3.1_T3.2 (ssRNA)
RNA: B1 RNA with A28G, U31A, G32C, U33A, A34C
B12: Id_iii_S2_P3E.5_K3.1_C3.3_[T-1A]_H3.1_A3.1_F3.1_T3.2 (ssRNA)
RNA: B1 RNA with A28U, U30A
B13: Id_iii_S2_P3E.5_K3.1_C3.3_H3.1_A3.1_F3.1_T3.2_[T9A] (ssRNA)
RNA: B1 RNA with A28U, U39A
B14: Id_iii_S2_P3E.5_K3.1_C3.3_[C-2G]_H3.1_A3.1_F3.1_T3.2 (ssRNA)
RNA: B1 RNA with A28U, C29G
B15: Id_iii_S2_P3E.6_K3.2_C3.3_H3.2_A3.1_F3.1_T3.2_[T9A] (ssRNA)
RNA: B1 RNA with A28U, G32A, U39A
B16: Id_iii_S2_P3E.6_K3.2_C3.3_[T-1C]_H3.2_A3.1_F3.1_T3.2 (ssRNA)
RNA: B1 RNA with A28U, U30C, G32A
B17: Id_iii_S2_P3E.6_K3.2_C3.3_[T-1A]_H3.2_A3.1_F3.1_T3.2 (ssRNA)
RNA: B1 RNA with A28U, U30A, G32A
B18: Id_iii_S2_P3E.7_K3.3_C3.3_H3.3_A3.1_F3.1_T3.2_[A10C] (ssRNA)
RNA: B1 RNA with A28U, U31A, G32C, U33A, A34C, A40C
B19: Id_iii_S2_P3E.7_K3.3_C3.3_[C-2G]_H3.3_A3.1_F3.1_T3.2 (ssRNA)
RNA: B1 RNA with A28U, C29G, U31A, G32C, U33A, A34C

The series has as its target T1, PUF4 RNA-binding domain. Nature of the series: Mg; RNA-MaP; 20 mM Na-HEPES pH 7.4, 30 mM KOAc, 0.75 mM MgCl2, 0.1% Tween-20, 5% glycerol, 0.1 mg/mL BSA, 2 mM DTT; 25 C; 0.0125-409.6 nM protein. The following applies: tags: N-His6-TEV cleaved; C-SNAP kept, Cy3B-labelled; label: tethered on chip by stalled RNA polymerase.
The molecule UCUCUUCCUACACUUAUUAUAUCUCUU (ssRNA) [Id_iii_S1_P5E.7_K5.3_C5.3_[T-3C]_H5.3_A5.1_F5.1_T5.2] displayed a Kd of more than 2300 nM.

Regarding UCUCUUUGUAUUUUUAUCUCUU (ssRNA) [Ia_S1_P5E.1_K5.1_C5.1_H5.1_A5.1_[A7T]_F5.1_T5.1], the affinity, expressed as Kd, was 3.57 nM.

The molecule UCUCUUUGUCUUGUUAUCUCUU (ssRNA) [Ib_S1_P5E.1_K5.1_C5.1_H5.1_[A4C]_A5.1_[A7G]_F5.1_T5.1] showed a Kd of 475 nM.

UCUCUUUCUUAUAUUAUUAAAUCUCUU (ssRNA) [Id_iii_S1_P5E.6_K5.2_C5.3_H5.2_A5.1_F5.1_T5.2_[T11A]] registered a dissociation constant Kd of 551 nM.

UCUCUUUCUUGUAAUAUUAUUUCUCUU (ssRNA) [Id_iii_S1_P5E.8_K5.4_C5.3_H5.1_A5.2_F5.1_T5.2_[A12T]] gave a Kd of 7.29 nM.

Consider UCUCUUUGUCUUCUUAUCUCUU (ssRNA) [Ib_S1_P5E.1_K5.1_C5.1_H5.1_[A4C]_A5.1_[A7C]_F5.1_T5.1], for which binding was characterised by a dissociation constant (Kd) of 1090 nM.

For UCUCUUUCUACACUUAUUACAUCUCUU (ssRNA) [Id_iii_S1_P5E.7_K5.3_C5.3_H5.3_A5.1_F5.1_T5.2_[T11C]], the Kd was more than 2300 nM.

UCUCUUUCCUGUAAUAUUAUAUCUCUU (ssRNA) [Id_iii_S1_P5E.8_K5.4_C5.3_[T-1C]_H5.1_A5.2_F5.1_T5.2] registered a Kd of 7.32 nM.

Molecule UCUCUUUCUUGUAUUAUUAUGUCUCUU (ssRNA) [Id_iii_S1_P5E.5_K5.1_C5.3_H5.1_A5.1_F5.1_T5.2_[A12G]] had a Kd of 8.55 nM.

With UCUCUUUCUUGUAAUAAAAAAUCUCUU (ssRNA) [Id_iii_S1_P5E.9_K5.5_C5.3_H5.1_A5.2_F5.2_T5.2_[T11A]], the Kd was found to be 412 nM.

Turning to UCUCUUUGUUUAAUUAUCUCUU (ssRNA) [Ib_S1_P5E.1_K5.1_C5.1_H5.1_[A4T]_A5.1_[T6A]_F5.1_T5.1], binding was put at a Kd of 44.6 nM.

In turn, UCUCUUUCUUGUAUUUAAAUUCUCUU (ssRNA) [Id_iii_S1_P4E.9_K4.5_C4.3_H4.1_A4.2_F4.2_T4.2_[G10A]] displayed a Kd of 96.9 nM.

Molecule UCUCUUUCCACACUUAUUAUAUCUCUU (ssRNA) [Id_iii_S1_P5E.7_K5.3_C5.3_[T-1C]_H5.3_A5.1_F5.1_T5.2] registered a Kd of more than 2300 nM.

For UCUCUUUCUUAUAUUAUUAUUUCUCUU (ssRNA) [Id_iii_S1_P5E.6_K5.2_C5.3_H5.2_A5.1_F5.1_T5.2_[A12T]], the Kd stood at 372 nM.

For UCUCUUUCUACACUUAUUAUGUCUCUU (ssRNA) [Id_iii_S1_P5E.7_K5.3_C5.3_H5.3_A5.1_F5.1_T5.2_[A12G]], the Kd was more than 2300 nM.

Regarding UCUCUUCCUUGUAAUAUUAUAUCUCUU (ssRNA) [Id_iii_S1_P5E.8_K5.4_C5.3_[T-3C]_H5.1_A5.2_F5.1_T5.2], the affinity, expressed as Kd, was 8.43 nM.

As to UCUCUUACUUGUAAUAUUAUAUCUCUU (ssRNA) [Id_iii_S1_P5E.8_K5.4_C5.3_[T-3A]_H5.1_A5.2_F5.1_T5.2], the equilibrium dissociation constant (Kd) came to 13.7 nM.

On to UCUCUUUCUUGUAUUAUUAAAUCUCUU (ssRNA) [Id_iii_S1_P5E.5_K5.1_C5.3_H5.1_A5.1_F5.1_T5.2_[T11A]], for which the affinity, expressed as Kd, was 11.1 nM.

The molecule UCUCUUUCUUGUAUUAUUAUUUCUCUU (ssRNA) [Id_iii_S1_P5E.5_K5.1_C5.3_H5.1_A5.1_F5.1_T5.2_[A12T]] showed a Kd of 4.34 nM.

For the molecule UCUCUUUCUUGUAUUAUUAUCUCUCUU (ssRNA) [Id_iii_S1_P5E.5_K5.1_C5.3_H5.1_A5.1_F5.1_T5.2_[A12C]], the Kd stood at 6 nM.

In turn, UCUCUUUCAUGUAUUUAAGUUCUCUU (ssRNA) [Id_iii_S1_P4E.9_K4.5_C4.3_[T-1A]_H4.1_A4.2_F4.2_T4.2] returned a Kd of 648 nM.

The molecule UCUCUUUCUUGUAAUAUUAUGUCUCUU (ssRNA) [Id_iii_S1_P5E.8_K5.4_C5.3_H5.1_A5.2_F5.1_T5.2_[A12G]] displayed a Kd of 10 nM.

UCUCUUUCUUGUAUUUAACUUCUCUU (ssRNA) [Id_iii_S1_P4E.9_K4.5_C4.3_H4.1_A4.2_F4.2_T4.2_[G10C]]: the affinity, expressed as Kd, was 70.1 nM.

UCUCUUUCUACACUUAUUAUUUCUCUU (ssRNA) [Id_iii_S1_P5E.7_K5.3_C5.3_H5.3_A5.1_F5.1_T5.2_[A12T]] yielded a Kd of more than 2300 nM.

On to UCUCUUUGUACACUUAUUAUAUCUCUU (ssRNA) [Id_iii_S1_P5E.7_K5.3_C5.3_[C-2G]_H5.3_A5.1_F5.1_T5.2], for which the Kd amounted to 3.9 nM.

For the molecule UCUCUUUCUUGUAAUAAAAUCUCUCUU (ssRNA) [Id_iii_S1_P5E.9_K5.5_C5.3_H5.1_A5.2_F5.2_T5.2_[A12C]], binding was characterised by a dissociation constant (Kd) of 411 nM.

UCUCUUUCCUGUAUUUAAGUUCUCUU (ssRNA) [Id_iii_S1_P4E.9_K4.5_C4.3_[T-1C]_H4.1_A4.2_F4.2_T4.2] came in with a Kd of 460 nM.

With UCUCUUUCUUGUAAUAUUAUCUCUCUU (ssRNA) [Id_iii_S1_P5E.8_K5.4_C5.3_H5.1_A5.2_F5.1_T5.2_[A12C]], binding was put at a Kd of 6.29 nM.

UCUCUUUCUUAUAUUAUUACAUCUCUU (ssRNA) [Id_iii_S1_P5E.6_K5.2_C5.3_H5.2_A5.1_F5.1_T5.2_[T11C]] had a Kd of 450 nM.

Regarding B1, the affinity, expressed as Kd, was 1.18 nM.

In turn, B2 returned a Kd of 213 nM.

For the molecule B3, the Kd was 91.2 nM.

Consider B4, for which binding was characterised by a dissociation constant (Kd) of 168 nM.

As to B5, the Kd was 43.5 nM.

Molecule B6 showed a Kd of 2.21 nM.

Molecule B7 showed a Kd of 111 nM.

B8 had a Kd of 430 nM.

Molecule B9 had a Kd of 1.52 nM.

With B10, the Kd was found to be 321 nM.

In turn, B11 displayed a Kd of 156 nM.

B12 gave a Kd of 1.7 nM.

For the molecule B13, the equilibrium dissociation constant (Kd) came out at 3.53 nM.

The molecule B14 showed a Kd of 2.14 nM.

B15 registered a Kd of 321 nM.

As to B16, the Kd was 28.7 nM.

B17 came in with a Kd of 122 nM.

Molecule B18 had a dissociation constant Kd of 495 nM.

Molecule B19 returned a Kd of 0.454 nM.

As to UCUCUUUGUGUUUUUAUCUCUU (ssRNA) [Ib_S1_P5E.1_K5.1_C5.1_H5.1_[A4G]_A5.1_[A7T]_F5.1_T5.1], the Kd came to 26.8 nM.

UCUCUUUCUUGUAAUAUUAAAUCUCUU (ssRNA) [Id_iii_S1_P5E.8_K5.4_C5.3_H5.1_A5.2_F5.1_T5.2_[T11A]] yielded a Kd of 11.3 nM.

UCUCUUUAUACACUUAUUAUAUCUCUU (ssRNA) [Id_iii_S1_P5E.7_K5.3_C5.3_[C-2A]_H5.3_A5.1_F5.1_T5.2]: the affinity, expressed as Kd, was 720 nM.

As to UCUCUUUGUCUUUUUAUCUCUU (ssRNA) [Ib_S1_P5E.1_K5.1_C5.1_H5.1_[A4C]_A5.1_[A7T]_F5.1_T5.1], the Kd is 113 nM.

Molecule UCUCUUACUACACUUAUUAUAUCUCUU (ssRNA) [Id_iii_S1_P5E.7_K5.3_C5.3_[T-3A]_H5.3_A5.1_F5.1_T5.2] displayed a Kd of 1570 nM.

Take UCUCUUUAUUGUAAUAUUAUAUCUCUU (ssRNA) [Id_iii_S1_P5E.8_K5.4_C5.3_[C-2A]_H5.1_A5.2_F5.1_T5.2]: the affinity, expressed as Kd, was 9.11 nM.

In turn, UCUCUUUCUUAUAUUAUUAUCUCUCUU (ssRNA) [Id_iii_S1_P5E.6_K5.2_C5.3_H5.2_A5.1_F5.1_T5.2_[A12C]] gave a Kd of 471 nM.

As usually defined, the Kd is the concentration at which binding is half-saturated.
